Laboratory results as given in US20190127480A1 (Regeneron, published 2019).
Numbering of substitutions follows the chain as printed.

B1: H1H7203P (monovalent 1-arm) (antibody, human IgG1, V domains shown)
VH: EVQLVQSGGGLVQPGRSLRLSCAASGFTFADYTMHWVRQTPGKGLEWVSGISWNSGSKDYADSVKGRFTISRDNAKNSLYLQMNSLRTEDTALYYCAKYGSGYGRYFFYAMDVWGQGTTVTVSS
VL: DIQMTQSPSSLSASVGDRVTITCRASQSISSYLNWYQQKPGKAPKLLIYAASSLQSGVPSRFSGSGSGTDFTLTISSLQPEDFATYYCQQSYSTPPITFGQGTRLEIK
notes: Monovalent 1-arm: second Fab removed, only the Fc portion (CH2-CH3) expressed; human IgG1 Fc; tied by numerical identifier; also called H1H7203B
B2: H1H5793B (antibody, human IgG1, V domains shown)
VH: QVQLVQSGTEVKKPGASMKVSCKASGYTFTGYYIHWVRQAPGQGLEWMGWINPNSDVTKYAQKFQGRVTLTRDTSISAAYIDLSRLRSDDTAIYYCARMGDGAVFDYWGQGTLVTVSS
VL: DIQLTQSPSSLSASVGDRVTITCRASQRISSYLNWYQQKPGKAPKVLISVASSLQSGVPSRFSGSGFGTDFTLTISSLQPEDSASYYCQQSYNTPLTFGGGTKLEIKR
notes: H1H: human IgG1 Fc; divalent
B3: H1H5786B (antibody, human IgG1, V domains shown)
VH: QVQLVESGAEVKKPGASVKVSCKTSGYTFTGYYMHWIRQAPGQGLEWMGWINPKSGGTNYAQKFQGRVTMTRDTSISTAYMELSRLRSDDMAVYYCARMGDGAVFDFWGQGTLVTVSS
VL: AIQMTQSPSSLSASVGDRVTITCRASQRISSFLNWYQQKPGKAPKLLIYTASNLQNGVPSRFSGSGSGTDFTLTISSLQPEDFATYYCQQSYRTPLTFGGGTKVEIKR
notes: H1H: human IgG1 Fc; divalent
B4: H1H5795B (antibody, human IgG1, V domains shown)
VH: B3 VH with Q1E, T28S, T30I, M34I, I37M, G57V, K63R, R87K, M91T, Y95F
VL: B3 VL with A1D, M4L, A43V, S65T, E105D
notes: H1H: human IgG1 Fc; divalent
B5: H1H5801B (antibody, human IgG1, V domains shown)
VH: QVQLVQSGGGVVQPGGSLRLSCAASGFTFDDYAMHWVRQAPGKGLEWVSLISGDGGSTYYADSVKGRFTISRDNSKNSLYLQMNSLRTEDTALYYCAKDDSSSSWYYYYYGMDVWGRGTTVTVSS
VL: B2 VL with L4M, F67S, S83F, L104V
notes: H1H: human IgG1 Fc; divalent
B6: H1H5790B (antibody, human IgG1, V domains shown)
VH: EVQLVESGGGVVQPGRSLRLSCAASGFTFSYYGMHWVRQAPGKGLEWVAVISFDGKNKYYADSVMGRFTISRDNSKNTLYLQMNSLRAEDSAVFFCARSYDILTGYGAGYSYHYGMDVWGQGTTVTVSS
VL: B3 VL
notes: H1H: human IgG1 Fc; divalent
B7: H1H5799P (antibody, human IgG1, V domains shown)
VH: B3 VH with E6Q, T24A, T30I, I37V, R72G, M91T, Y94F, V104M, F107Y
VL: DIQMTQSPSSLSASVGDRVTITCRASQRISSYLNWYQQKAGKAPKVLIYTASSLQSGVPSRFSGSGSGTDFTLTISSLQPEDFATYYCQQSYSTPLTFGGGTKVEIK
notes: H1H: human IgG1 Fc; divalent
B8: H1H5791B (antibody, human IgG1, V domains shown)
VH: B3 VH with F29L, T30S, I37M, G57V, G66D, T69A, M91T, G109A
VL: B3 VL with A1D, M4L, V104L
notes: H1H: human IgG1 Fc; divalent
B9: H1H5781P (antibody, human IgG1, V domains shown)
VH: EVQLVESGGGLVQPGRSLRLSCAASGFTFDDFTMHWVRQAPGKGLEWVSDISWNSGSIDYADSVKGRFTISRDNARNSLFLQMSSLRTEDTASYYCIKDKSGYGSYNYGLDVWGQGTTVTVSS
VL: EIVLTQSPGTLSLSPGDRATLSCRASQSVSSIYLAWYQQKPGQAPRLLIHGASTRATGIPDRFSGSGSGTDFTLTISRLEPEDFALYYCHQRVSSPYTFGQGTKLEIK
notes: H1H: human IgG1 Fc; divalent
B10: H1xH7221G5 (monovalent 1-arm) (antibody, V domains shown)
VH: EVQLVESGGGLVQPGRSLRLSCAASGFTFDDYSMHWVRQAPGKGLEWVSGISWNSGSIGYADSVKGRFTISRDNAKNSLYLQMNSLRAEDTALYYCAKDGSGYGKFYYYGMDVWGQGTTVTVSS
VL: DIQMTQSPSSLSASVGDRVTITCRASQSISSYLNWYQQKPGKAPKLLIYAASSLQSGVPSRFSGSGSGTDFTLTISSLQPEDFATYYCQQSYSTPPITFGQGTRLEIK
notes: Monovalent 1-arm: second Fab removed, only the Fc portion (CH2-CH3) expressed; prefix H1xH not explained
B11: H1H7232P (monovalent 1-arm) (antibody, human IgG1, V domains shown)
VH: B10 VH with Q13H, S33T, G50D, I58R, K76E, G100K, K105H, F106Y, G110A
VL: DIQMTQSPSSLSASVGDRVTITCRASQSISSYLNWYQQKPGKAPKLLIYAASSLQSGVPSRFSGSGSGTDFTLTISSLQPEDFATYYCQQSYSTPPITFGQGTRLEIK
notes: Monovalent 1-arm: second Fab removed, only the Fc portion (CH2-CH3) expressed; human IgG1 Fc; tied by numerical identifier; also called H1H7232B
B12: H1H7221P (monovalent 1-arm) (antibody, human IgG1, V domains shown)
VH: B10 VH with A23V, I58K, G59D, D99Y, Y108H, M111L
VL: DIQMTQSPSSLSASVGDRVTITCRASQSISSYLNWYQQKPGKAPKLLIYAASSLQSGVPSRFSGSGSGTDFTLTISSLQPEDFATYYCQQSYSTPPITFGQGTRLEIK
notes: Monovalent 1-arm: second Fab removed, only the Fc portion (CH2-CH3) expressed; human IgG1 Fc; tied by numerical identifier; also called H1H7221B
B13: H1xH7221G3 (monovalent 1-arm) (antibody, V domains shown)
VH: B10 VH with K105Y
VL: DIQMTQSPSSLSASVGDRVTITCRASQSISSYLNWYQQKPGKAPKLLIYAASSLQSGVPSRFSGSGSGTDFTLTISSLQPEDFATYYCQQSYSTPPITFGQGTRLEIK
notes: as for B10
B14: H1H7198P (monovalent 1-arm) (antibody, human IgG1, V domains shown)
VH: B1 VH with Q6E, T40V, G50D, S78F, T88A, A97V, R105K, Y106F, F107Y
VL: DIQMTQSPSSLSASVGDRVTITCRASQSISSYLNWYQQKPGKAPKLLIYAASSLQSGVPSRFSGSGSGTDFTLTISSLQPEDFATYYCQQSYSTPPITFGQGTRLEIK
notes: Monovalent 1-arm: second Fab removed, only the Fc portion (CH2-CH3) expressed; human IgG1 Fc; tied by numerical identifier; also called H1H7198B
B15: H1H7223P (monovalent 1-arm) (antibody, human IgG1, V domains shown)
VH: B1 VH with E1Q, Q6E, T40A, G50D, K58M, D59G, N77K, Y99D, R105K
VL: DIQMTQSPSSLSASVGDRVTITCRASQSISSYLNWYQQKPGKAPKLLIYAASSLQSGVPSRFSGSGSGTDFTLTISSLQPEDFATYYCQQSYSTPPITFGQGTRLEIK
notes: Monovalent 1-arm: second Fab removed, only the Fc portion (CH2-CH3) expressed; human IgG1 Fc; tied by numerical identifier; also called H1H7223B
B16: H1H7196P (monovalent 1-arm) (antibody, human IgG1, V domains shown)
VH: EVQLVESGGGMVQPGRSLRLSCAASGFPFNDYTMHWVRQVPGRGLEWVSDISWNSGSKGYADSVKGRFIISRDNAKNSLYLQMNSLRVEDTALYYCVKDGSGYGRFHYYAMDVWGQGTTVTVSS
VL: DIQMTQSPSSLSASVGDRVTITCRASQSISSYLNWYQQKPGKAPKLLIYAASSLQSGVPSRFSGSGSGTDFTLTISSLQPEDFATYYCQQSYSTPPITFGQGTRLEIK
notes: Monovalent 1-arm: second Fab removed, only the Fc portion (CH2-CH3) expressed; human IgG1 Fc; tied by numerical identifier; also called H1H7196B
B17: H1H7194P (monovalent 1-arm) (antibody, human IgG1, V domains shown)
VH: EVQLVESGGGLVQPGRSLRLSCAASGFTFGDYTMHWVRQAPGKGLEWVSDISWNSGSKDYADSVKGRFTISRDNAKNSLYLQMNSLRTEDTAFYYCAKDSRGYGLYYHLGLDVWGQGTTVTVSS
VL: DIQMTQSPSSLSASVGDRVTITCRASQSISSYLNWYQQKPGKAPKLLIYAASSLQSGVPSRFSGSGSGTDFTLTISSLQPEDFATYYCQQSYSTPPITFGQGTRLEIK
notes: Monovalent 1-arm: second Fab removed, only the Fc portion (CH2-CH3) expressed; human IgG1 Fc; tied by numerical identifier; also called H1H7194B
B18: H1H7195P (monovalent 1-arm) (antibody, human IgG1, V domains shown)
VH: B17 VH with G30A, K58I, D59A, L105H, Y107K, H108Y
VL: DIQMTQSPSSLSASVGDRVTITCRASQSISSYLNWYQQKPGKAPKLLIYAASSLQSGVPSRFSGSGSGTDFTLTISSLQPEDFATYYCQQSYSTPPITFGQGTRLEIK
notes: Monovalent 1-arm: second Fab removed, only the Fc portion (CH2-CH3) expressed; human IgG1 Fc; tied by numerical identifier; also called H1H7195B

Legend:
[1] = target: T1, Soluble heterodimeric CD3 protein (hCD3-epsilon/hCD3-delta) with either a human Fc tag (hFcΔAdp/hFc) or a … (human, UniProt P07766 23-126; P04234 22-105); experiment: SPR Biacore 25C antigen-capture, 1-arm
T1 construct: also called hCD3ε/δ; not shown: Fc tag: human (hFcΔAdp/hFc)
T1 sequence (P07766 23-126 limits assumed, stated change not applied, chain 1 of 2): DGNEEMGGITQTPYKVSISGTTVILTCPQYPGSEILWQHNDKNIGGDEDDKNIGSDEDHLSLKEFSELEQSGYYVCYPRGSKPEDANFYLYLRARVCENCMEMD
T1 sequence (P04234 22-105 limits assumed, stated change not applied, chain 2 of 2): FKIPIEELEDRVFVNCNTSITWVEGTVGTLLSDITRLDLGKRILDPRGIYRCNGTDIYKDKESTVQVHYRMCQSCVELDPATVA
Experimental: In the antigen-capture format, heterodimeric CD3 protein was captured using a rabbit anti-mouse Fc or mouse anti-human Fc and the respective antibodies were injected over the captured antigen.
(§1) Kinetic association (kₐ) and dissociation (kd) rate constants were determined by processing and fitting the data to a 1:1 binding model using Scrubber 2.0 curve fitting software. Binding dissociation equilibrium constants (KD) and dissociative half-lives (t₁₁₂) were calculated from the kinetic rate constants as: KD (M)=kd/kₐ; and t_{1/2} (min)=(ln 2/(60*kd). NT=not tested; NB=no binding observed.

[2] = target: T1, Soluble heterodimeric CD3 protein …; experiment: SPR Biacore 25C antibody-capture, 1-arm
Experimental: (§2) Soluble heterodimeric CD3 protein (hCD3-epsilon/hCD3-delta; SEQ ID NOs:1652/1653) with either a human Fc tag (hFcΔAdp/hFc; SEQ ID NOs:1683/1684) or a mouse Fc tag (mFcΔAdp/mFc; SEQ ID NOs:1685/1686) was injected over the antibody captured surface and the binding response was recorded. Heterodimeric CD3 protein was purified using the method described in Davis et al. (US2010/0331527).
as §1

[3] = target: T1, Soluble heterodimeric CD3 protein …; experiment: SPR Biacore 25C antigen-capture
How it was run: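 Rate constants fitted to a 1:1 model, giving KD as kd/ka and dissociative half-life as ln2/(60·kd) minutes. Antibodies flowed over CD3ε/δ heterodimer captured on anti-human or anti-mouse Fc surfaces, run on a Biacore T200 at 25 °C.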

[4] = target: T1, Soluble heterodimeric CD3 protein …; experiment: SPR Biacore 25C antibody-capture
Experimental: Measurements were conducted on a T200 Biacore™ instrument.
as §2, §1

Binder	Kd [1] [nM]	T½ [1] [min]	koff [1] [s⁻¹]	kon [1] [M⁻¹ s⁻¹]	Kd [2] [nM]	T½ [2] [min]	koff [2] [s⁻¹]	kon [2] [M⁻¹ s⁻¹]	Kd [3] [nM]	T½ [3] [min]	koff [3] [s⁻¹]	kon [3] [M⁻¹ s⁻¹]	Kd [4] [nM]	T½ [4] [min]	koff [4] [s⁻¹]	kon [4] [M⁻¹ s⁻¹]	binding result [2]
B1	0.498	48	0.000238	479000	18.3	43	0.000267	14600	–	–	–	–	–	–	–	–	–
B2	–	–	–	–	–	–	–	–	0.333	73	0.000159	478000	44.7	30	0.000382	8540	–
B3	–	–	–	–	–	–	–	–	0.141	27	0.000424	3e+06	85.4	11	0.00108	12600	–
B4	–	–	–	–	–	–	–	–	0.145	50	0.000229	1.58e+06	33.3	20	0.000576	17300	–
B5	–	–	–	–	–	–	–	–	3.38	10	0.00112	331000	246	7	0.00162	6570	–
B6	–	–	–	–	–	–	–	–	0.254	49	0.000236	925000	28.3	22	0.000517	18200	–
B7	–	–	–	–	–	–	–	–	7.85	2	0.00564	718000	579	1	0.00788	13600	–
B8	–	–	–	–	–	–	–	–	0.433	34	0.00034	786000	72.5	15	0.00079	10900	–
B9	–	–	–	–	–	–	–	–	1.92	43	0.000268	140000	57.7	23	0.000497	8610	–
B10	–	–	–	–	–	–	–	–	–	–	–	–	–	–	–	–	no binding
B11	10	8	0.00149	149000	220	7	0.00177	8030	–	–	–	–	–	–	–	–	–
B12	1.75	48	0.000239	136000	27.5	40	0.000292	10700	–	–	–	–	–	–	–	–	–
B13	–	–	–	–	–	–	–	–	–	–	–	–	–	–	–	–	no binding
B14	0.112	163	7.07e-05	628000	6.02	73	0.000158	26300	–	–	–	–	–	–	–	–	–
B15	1.53	40	0.000286	187000	19.2	38	0.000307	16000	–	–	–	–	–	–	–	–	–
B16	2.49	25	0.000461	185000	41.3	26	0.000443	10700	–	–	–	–	–	–	–	–	–
B17	0.241	137	8.43e-05	350000	13	76	0.000151	11600	–	–	–	–	–	–	–	–	–
B18	0.126	162	7.14e-05	566000	3.16	117	9.89e-05	31300	–	–	–	–	–	–	–	–	–
